This assay has as its target E2F1 induced in SAOS-2-tet-E2F1 cells (human, UniProt Q01094 1-437). Description: cell-based or functional assay.

Sequence of E2F1 induced in SAOS-2-tet-E2F1 cells (Q01094 whole entry): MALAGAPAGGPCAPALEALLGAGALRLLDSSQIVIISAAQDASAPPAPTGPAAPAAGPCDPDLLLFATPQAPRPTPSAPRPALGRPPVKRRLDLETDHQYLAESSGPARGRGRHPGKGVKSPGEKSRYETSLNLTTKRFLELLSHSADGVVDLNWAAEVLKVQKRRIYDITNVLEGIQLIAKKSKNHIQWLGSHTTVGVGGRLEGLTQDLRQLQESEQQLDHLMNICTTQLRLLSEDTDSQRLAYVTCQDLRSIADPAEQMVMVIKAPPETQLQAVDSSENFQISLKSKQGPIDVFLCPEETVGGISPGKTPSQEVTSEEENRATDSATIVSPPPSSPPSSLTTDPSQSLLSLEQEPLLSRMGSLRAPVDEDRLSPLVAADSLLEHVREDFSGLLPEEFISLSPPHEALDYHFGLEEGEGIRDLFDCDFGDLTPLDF

B1: retinoblastoma protein RB (wild type, expressed in cells) (natural protein, human, UniProt P06400 1-928, looked up)
chain: MPPKTPRKTAATAAAAAAEPPAPPPPPPPEEDPEQDSGPEDLPLVRLEFEETEEPDFTALCQKLKIPDHVRERAWLTWEKVSSVDGVLGGYIQKKKELWGICIFIAAVDLDEMSFTFTELQKNIEISVHKFFNLLKEIDTSTKVDNAMSRLLKKYDVLFALFSKLERTCELIYLTQPSSSISTEINSALVLKVSWITFLLAKGEVLQMEDDLVISFQLMLCVLDYFIKLSPPMLLKEPYKTAVIPINGSPRTPRRGQNRSARIAKQLENDTRIIEVLCKEHECNIDEVKNVYFKNFIPFMNSLGLVTSNGLPEVENLSKRYEEIYLKNKDLDARLFLDHDKTLQTDSIDSFETQRTPRKSNLDEEVNVIPPHTPVRTVMNTIQQLMMILNSASDQPSENLISYFNNCTVNPKESILKRVKDIGYIFKEKFAKAVGQGCVEIGSQRYKLGVRLYYRVMESMLKSEEERLSIQNFSKLLNDNIFHMSLLACALEVVMATYSRSTSQNLDSGTDLSFPWILNVLNLKAFDFYKVIESFIKAEGNLTREMIKHLERCEHRIMESLAWLSDSPLFDLIKQSKDREGPTDHLESACPLNLPLQNNHTAADMYLSPVRSPKKKGSTTRVNSTANAETQATSAFQTQKPLKSTSLSLFYKKVYRLAYLRLNTLCERLLSEHPELEHIIWTLFQHTLQNEYELMRDRHLDQIMMCSMYGICKVKNIDLKFKIIVTAYKDLPHAVQETFKRVLIKEEEYDSIIVFYNSVFMQRLKTNILQYASTRPPTLSPIPHIPRSPYKFPSSPLRIPGGNIYISPLKSPYKISEGLPTPTKMTPRSRILVSIGESFGTSEKFQKINQMVCNSDRVLKRSAEGSNPPKPLKKLRFDIEGSDEADGSKHLPGESKFQQKLAEMTSTRTRMQKQKMNDSMDTSNKEEK
Consider B1, for which the “Gal4-Luc luciferase reporter in SAOS-2 cells co-transfected with Gal4-E2F1 (Gal4 DNA-binding domain and transactivation domain of E2F1) and RB: reduction of Gal4-E2F1 activity” value is 3 fold.

The values above are taken from PMC1762320, “Separation of Anti-Proliferation and Anti-Apoptotic Functions of Retinoblastoma Protein through Targeted Mutations of Its A/B Domain” (PLoS ONE, 2006).
